# Data as given in the RNAGym collection of RNA variant scans (doi:10.7554/elife.80360).
# B1: HDV Ribozyme (parent)
# chain: GGCCGGCAUGGUCCCAGCCUCCUCGCUGGCGCCGGCUGGGCAACAUUCCGAGGGGACCGUCCCCUCGGUAAUGGCGAAUGGGACCCA
# Variants of: B1
# Assay: self-cleavage, relative activity (ratio to wild type); higher = more cleavage; co-transcriptional
row,Variant,self-cleavage
1,C7G A71C,0.222
2,A8G G28U,0.185
3,G6U C26U,0.892
4,A8G C26G,1.36
5,C7A C64A,0.227
6,A8C C86G,1.02
7,A8C C66A,0.831
8,A8G A70C,0.519
9,C7U G25A,0.212
10,C7A G35C,0.0665
11,C7G C84A,0.111
12,A8C G82U,0.116
13,A8C G73A,0.256
14,A8G G73C,0.437
15,C7A G28A,0.123
16,C7U C32G,0.0361
17,C7U C32U,0.394
18,C7U C32A,0.0707
19,C7A U20A,0
20,C7U U37G,0.19
21,G6U C36A,0.133
22,G6U C48U,0.696
23,G6U C48A,0.542
24,G6U C57A,0.623

row,Variant,self-cleavage
1,G6U G11A,0.0437
2,C7G G67C,0.0573
3,C7U G82C,0.227
4,G6U C66A,0.443
5,G6U C66G,0.54
6,A8C C84G,0.208
7,C7A A42C,0.19
8,C7G C19A,0.0831
9,G6C U20A,0
10,C7G C44A,0
11,C7U C36U,0.399
12,C7G U72C,0
13,C7A G50C,0.415
14,C7A A43U,0.0386
15,A8C U23A,0.615
16,C7U C49A,0.974
17,C7A C85G,0.688
18,A8G U23C,0.612
19,A8G C61G,1.04
20,C7A C84U,0.366
21,A8G G35C,0.0426
22,A8G G35A,0.332
23,A8G U37G,0
24,C7U C62A,0.764

row,Variant,self-cleavage
1,C7G C26U,0.356
2,G6C U60C,0.453
3,G6C U60G,0.312
4,C7G C62G,0.111
5,C7G C62A,0
6,C7U G80U,0.117
7,G6C G55A,0.16
8,C7A C26A,0.615
9,C7G A56U,0.475
10,C7G C21U,0.0594
11,C7G G50C,0.138
12,G6U U47G,0.554
13,C7U U9G,0.997
14,C7U U9A,0.86
15,C7U C64A,0.923
16,A8G A51G,1.16
17,G6U U60C,0.525
18,C7U C57G,1.2
19,A8C C24G,0
20,C7U G50A,0.786
21,C7A G29A,0.0804
22,G6U C64G,0.388
23,C7U U69C,0.853
24,G6U C32G,0.798

row,Variant,self-cleavage
1,G6U G52C,0.554
2,G6U G52U,0.397
3,C7A C15G,0.123
4,A8C G59U,0.804
5,A8C A16G,0.831
6,C7U A42U,0.196
7,C7U A42C,0.18
8,A8G G50C,1.17
9,A8G G50A,1.03
10,A8C U27A,0.867
11,A8C G76C,0.705
12,A8C C33G,0.0923
13,C7A G68A,0.464
14,C7G G35A,0.156
15,C7G G35C,0.237
16,C7A G25C,0
17,A8C G38U,0.0875
18,G6C G74U,0.196
19,G6C G74C,0
20,C7U C66U,0.665
21,G6U A78G,0.229
22,C7U A8U,0.831
23,C7U A8G,0.582
24,C7U G10C,0.266

row,Variant,self-cleavage
1,C7U G10A,0.425
2,A8C C15A,0.199
3,A8C G52C,0.957
4,C7U C61G,0.743
5,C7U U65A,0.475
6,C7U G68U,0.764
7,C7U U12A,0.35
8,C7U U12C,0.237
9,C7A C57G,0.571
10,G6U U37C,0.943
11,G6U A56G,0.623
12,C7A G52A,0.629
13,C7G U12G,0
14,G6C G54A,0.415
15,A8C A45G,0.615
16,A8G C41G,0.578
17,A8C C41A,0.798
18,A8C C41G,0.457
19,G6C U65A,0.104
20,G6U G29C,0.119
21,G6U G29A,0.102
22,C7A C18A,0.0852
23,G6C G59U,0.314
24,G6U G10C,0.364

row,Variant,self-cleavage
1,A8G C19U,0.104
2,G6U C30U,0.131
3,G6U C30G,0.0326
4,A8G G53C,1.03
5,C7G A8C,0
6,C7G A8G,0.519
7,G6U G82A,0.0875
8,C7G C86A,0.426
9,A8G C22G,0.0489
10,A8G C22U,0.361
11,A8G C18A,0.0875
12,A8G C18U,0.297
13,G6U G25U,0.117
14,A8C U46A,0.217
15,G6U G31A,0.282
16,G6U G31C,0.122
17,A8G C62A,1.03
18,C7A C49U,0.582
19,A8G G67C,0.665
20,C7G U27G,0.256
21,C7G U27A,0.217
22,G6U U79G,0.185
23,G6U G68C,0.383
24,G6U G80U,0.0838

row,Variant,self-cleavage
1,C7U C13G,0
2,C7U C13U,0.332
3,A8C A70U,0.623
4,A8C A70G,0.782
5,G6U C85A,0.394
6,C7U C22U,0.394
7,A8G C36A,0.0386
8,C7U G74A,0.204
9,A8C G11U,0.17
10,C7U C18A,0
11,A8G G10C,0.665
12,C7G G73U,0.0831
13,G6C U69A,0.208
14,C7U G28U,0.0712
15,C7U C63U,0.918
16,A8C G34A,0.0475
17,C7A G55A,0.627
18,A8G G81C,0.115
19,A8G G81U,0.256
20,C7G A43U,0.0573
21,A8G G54U,0.906
22,G6U A83U,0.256
23,G6U A83G,0.17
24,C7G C75G,0.145

row,Variant,self-cleavage
1,C7G G10C,0.222
2,C7A C22A,0.0941
3,C7A C22U,0
4,A8G G25U,0.35
5,C7A C14A,0.123
6,A8G C14G,0
7,C7A A87U,0.505
8,C7G G52C,0.229
9,A8G G74U,0.111
10,G6U A45C,0.0462
11,G6U A45G,0.403
12,G6U A45U,0.475
13,A8C G40C,0.242
14,A8C G40U,0.345
15,G6U C7G,0
16,C7G C48U,0.262
17,C7G G74C,0.0475
18,C7G G74A,0.138
19,A8G G29U,0
20,C7G U69G,0.293
21,C7G U69C,0.277
22,A8C A87C,0.805
23,A8G C85A,0.68
24,C7A C66U,0.587

row,Variant,self-cleavage
1,C7A G67A,0.315
2,C7A G67C,0.302
3,C7G C14G,0
4,C7G G17C,0
5,C7G A45G,0.217
6,C7U U60A,0.682
7,G6C U79G,0
8,A8G G80A,0.148
9,C7G G53U,0.26
10,C7G G53A,0.26
11,C7U G52A,0.68
12,G6U A16C,0
13,G6U A16G,0.388
14,C7G U47A,0
15,C7U C24G,0.0739
16,G6U C21A,0.227
17,G6U C21G,0.0361
18,G6U C41A,0.269
19,G6U C41U,0.259
20,G6U C41G,0.237
21,C7U G59A,0.8
22,C7U G34A,0.0302
23,A8C A56C,0.692
24,C7U A51C,0.643

row,Variant,self-cleavage
1,A8G C21A,0.0415
2,A8G G76U,0.831
3,A8G A56U,0.831
4,C7A U65A,0.356
5,C7A U65G,0.246
6,G6U A77C,0.332
7,A8C G17A,0.831
8,A8C C49A,0.9
9,C7A A56U,0.617
10,C7G C57A,0.434
11,C7G G29C,0.0615
12,A8C G25C,0
13,A8C G25A,0.172
14,A8C G25U,0.138
15,G6U U72G,0.133
16,G6U U72A,0.0665
17,C7U C44U,0.374
18,C7U C44G,0.464
19,A8C G74A,0.314
20,C7G G82U,0
21,C7G G25C,0
22,C7U G38U,0.109
23,C7U G38A,0.0496
24,G6U C18A,0.131

row,Variant,self-cleavage
1,G6U C18G,0
2,C7A C32G,0
3,C7A G11U,0.095
4,A8G G17U,0.554
5,G6U C75G,0.145
6,G6U C75U,0.113
7,G6U A51U,0.739
8,A8C G31U,0.214
9,A8C G31C,0.119
10,C7A U79G,0.192
11,C7A U79A,0.249
12,A8G G55A,0.655
13,A8C C26G,1.11
14,A8C C58U,0.831
15,G6C U12A,0
16,G6C G76C,0.364
17,C7G G11C,0
18,G6C G53C,0.32
19,C7A U9A,0.431
20,C7U C58A,0.88
21,A8C G35A,0.142
22,C7U A78C,0.0923
23,C7U C41G,0.225
24,A8G C32G,0.0573

row,Variant,self-cleavage
1,A8G C32U,0.609
2,A8C U72C,0.185
3,G6U C61G,0.707
4,C7U U46G,0.68
5,G6C G68A,0.201
6,A8C C21G,0.0594
7,A8G A77C,0.277
8,A8C G53A,0.846
9,A8C G53U,0.831
10,C7U A56U,0.739
11,C7G C66U,0.231
12,C7G C66G,0.214
13,G6U C63A,0.594
14,A8C C22U,0.426
15,C7G C58U,0.492
16,C7A U47A,0.697
17,A8C G10U,0.415
18,A8C G10C,0.623
19,A8C G10A,0.95
20,A8C A77C,0.317
21,A8C A77U,0.356
22,C7G U46G,0
23,C7U G81A,0.352
24,C7U G81U,0.187

row,Variant,self-cleavage
1,C7U C84G,0.527
2,C7U C84A,1.14
3,A8C C57U,0.895
4,A8C U47G,0.795
5,C7A G81U,0.116
6,C7A U27C,0.287
7,C7A C48U,0.542
8,C7A G76U,0.849
9,C7U G54U,1
10,C7U G54C,0.884
11,C7A G59C,0.578
12,C7G C32A,0
13,C7G C33A,0.196
14,A8G G82C,0.128
15,A8C C75U,0.128
16,A8C U20A,0.0615
17,C7G C24U,0.0692
18,C7A A78U,0.0791
19,C7G A83U,0
20,G6U A8C,0.447
21,C7G C13A,0
22,G6U G17U,0.0519
23,A8C A51U,0.831
24,A8C A83G,0.646

row,Variant,self-cleavage
1,A8G A78G,0.128
2,G6U G54A,0.522
3,A8G A42C,0.0573
4,A8G C57A,0.779
5,G6C U27G,0.0791
6,G6C U27A,0.332
7,G6U G53A,0.821
8,G6U G53C,0.494
9,C7G C30A,0.0361
10,G6U A42U,0.095
11,A8G G68C,1.06
12,C7A C33U,0.148
13,A8C C63A,0.852
14,A8C C63G,0.554
15,G6U C86A,0.574
16,G6U U20G,0
17,A8C C61G,0.772
18,A8G C44G,0.499
19,A8G C44A,0.665
20,A8G C44U,0.475
21,C7G G55A,0.302
22,C7A U69G,0.751
